In the data set the test system is MS2 coat protein. Description: apparent KD of MS2 coat protein; designed switch direction (-1 OFF switch, 1 ON switch): 1; higher = weaker reporter binding. The gist of the method: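 The apparent KD reported per design is the median over clusters of curve fits to normalised cluster fluorescence. The RNA switches were transcribed on Illumina chips by stalled E. coli RNA polymerase. SNAP-549-labelled MS2 coat protein was titrated from 0.7 or 1.5 nM, doubling up to 3 µM, in Tris-HCl pH 7.5 buffer containing KCl, MgCl2, BSA, DTT, tRNA and Tween-20, with no input, 200 uM small-molecule ligand, or an oligonucleotide input.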

[1] abbreviates: input ligand: microRNA oligo, concentration not stated.
[2] abbreviates: Eterna round: R95, input ligand: FMN 200 uM.
[3] abbreviates: Eterna round: R95, input ligand: microRNA oligo, concentration not stated.
Where [4] appears, read: Eterna round: R95, input ligand: none.

As to “GUUACAUGAGGAUCACCCAUGUAUGUGUGGGAGUAAGUGUCUUAGGAUAUCUAUCAUUAAAUUUAAGAGAAGGAAGAUUGUUGU [JMF's solution 91] (Eterna round: R96, puzzle: Same State NG 3)”, the “apparent KD of MS2 coat protein” value is, setting by setting: (input ligand: FMN 200 uM) 0.105 µM; under setting [1], 0.0847 µM; (input ligand: none) 0.121 µM.
Consider “GUUACAUGAGGAUCACCCAUGUAUGUGUGGGAGUAAGUGUCUUAGGAUAUCUAUCAUUUAAUAUAAGAGAAGGAAGAUUGUUGU [JMF's solution 96] (Eterna round: R96, puzzle: Same State NG 3)”, for which, under setting [1], the “apparent KD of MS2 coat protein” value turned out to be 0.0873 µM.
With “GUUACAUGAGGAUCACCCAUGUAUGUGUGGGAGUAAGUGUCUUAGGAUAUCUAUGAUAUAAUUUAAGAGAAGGAAGAUUGUUGU [JMF's solution 75] (Eterna round: R96, puzzle: Same State NG 3)”, the “apparent KD of MS2 coat protein” value by setting is: (input ligand: FMN 200 uM) 0.103 µM; under setting [1], 0.0699 µM; (input ligand: none) 0.136 µM.
“GUUACAUGAGGAUCACCCAUGUAUGUGUGGGAGUAAGUGUCUUAGGAUAUCUAUGAUUGAAUUUAAGAGAAGGAAGAUUGUUGU [JMF's solution 77] (Eterna round: R96, puzzle: Same State NG 3)”: the “apparent KD of MS2 coat protein” value is, setting by setting: (input ligand: FMN 200 uM) 0.103 µM; under setting [1], 0.0838 µM; (input ligand: none) 0.0906 µM.
As for “GUUACAUGAGGAUCACCCAUGUAUGUGUGGGAGUAAGUGUCUUAGGAUAUCUAUGAUUUAACUUAAGAGAAGGAAGAUUGUUGU [JMF's solution 81] (Eterna round: R96, puzzle: Same State NG 3)”, the “apparent KD of MS2 coat protein” value is, setting by setting: (input ligand: FMN 200 uM) 0.123 µM; under setting [1], 0.0729 µM; (input ligand: none) 0.0986 µM.
For “GUUACAUGAGGAUCACCCAUGUAUGUGUGGGAGUAAGUGUCUUAGGAUAUCUAUGAUUUAAGUUAAGAGAAGGAAGAUUGUUGU [JMF's solution 80] (Eterna round: R96, puzzle: Same State NG 3)” the same measures were 0.118 µM, 0.0895 µM and 0.114 µM.
Taken in the same sequence, the figures for “GUUACAUGAGGAUCACCCAUGUAUGUGUGGGAGUAAGUGUCUUAGGAUAUCUAUGUUUUAAUUUAAGAGAAGGAAGAUUGUUGU [JMF's solution 71] (Eterna round: R96, puzzle: Same State NG 3)” were 0.102 µM, 0.102 µM and 0.115 µM.
In the case of “GUUACAUGAGGAUCACCCAUGUAUGUGUGGGAGUAAGUGUCUUAGGAUAUCUAUUAUUGAAAUUAAGAGAAGGAAGAUUGUUGU [JMF's solution 19] (Eterna round: R96, puzzle: Same State NG 3)”, under setting [1], the “apparent KD of MS2 coat protein” value was 0.0986 µM.
Same read-out and setting: then “GUUACAUGAGGAUCACCCAUGUAUGUGUGGGAGUAAGUGUCUUAGGAUAUCUAUUAUUUAAUGUAAGAGAAGGAAGAUUGUUGU [JMF's solution 24] (Eterna round: R96, puzzle: Same State NG 3)”, with 0.106 µM.
With “GUUACAUGAGGAUCACCCAUGUAUGUGUGGGAGUAAGUGUCUUAGGAUAUCUGUUAUUAAAUUUAAGAGAAGGAAGAUUGUUGU [JMF's solution 36] (Eterna round: R96, puzzle: Same State NG 3)”, the “apparent KD of MS2 coat protein” value (input ligand: FMN 200 uM) is 0.104 µM, the “apparent KD of MS2 coat protein” value under setting [1] was 0.0641 µM and the “apparent KD of MS2 coat protein” value (input ligand: none) amounted to 0.0927 µM.
As for “GUUACAUGAGGAUCACCCAUGUGUGUGUGGGAGUGAGUGGCUUAGGAUAUCUAUGAUUUAAGUUAAGAGAAGGAAGAUUGUUGU [SS-NG3-LRO03] (Eterna round: R96, puzzle: Same State NG 3)”, the “apparent KD of MS2 coat protein” value runs as follows: (input ligand: FMN 200 uM) 0.415 µM; under setting [1], 0.196 µM; (input ligand: none) 0.352 µM.
Taken in the same sequence, the figures for “GUUAGGAAUCUAGCAUACAUGAGGAUCACCCAUGUUAGUGGGAAGGAUAUGGUACAGAAACUGUACCAGAAGGUCUUAUUGUUU [Omei SS(NG) 3 AV12] (Eterna round: R96, puzzle: Same State NG 3)” were 0.21 µM, 0.348 µM and 0.408 µM.
Consider “GUUAGGAAUCUAGCGAACAUGAGGAUCACCCAUGUUAGUGGGAAGGAUAUGGUACAGAAACUGUACCAGAAGGUCUUAUUGUUU [Omei SS(NG) 3 AV11] (Eterna round: R96, puzzle: Same State NG 3)”, for which, under setting [1], the “apparent KD of MS2 coat protein” value was 0.332 µM.
On to “GUUGAAUUGCAAGGAUAUCUUAGUCAGACGCUAAGAGAAGGUGCUUUACAGUUACAUGAGGAUCACCCAUGUCUUUCUUUUGAU [Jens NG1-01] (Eterna round: R96, puzzle: Same State NG 1)”, for which the “apparent KD of MS2 coat protein” value (input ligand: FMN 200 uM) turned out to be 0.0234 µM, the “apparent KD of MS2 coat protein” value under setting [1] turned out to be 0.0202 µM and the “apparent KD of MS2 coat protein” value (input ligand: none) is 0.0285 µM.
For “GUUGAGAAAUAAGGAUAUACAUGGAAGACACAUGAGGAUCACCCAUGUGGGAGGGAAACCAGGAGGUAGAAGGUAUUGGGAAAC [AK SSNG2-V2-23] (Eterna round: R96, puzzle: Same State NG 2)” the same measures were 0.0331 µM, 0.0241 µM and 0.0437 µM.
With “UAAACUUCUUUUAGUGUAAUGCAAGUGAAACAUGAGGAUCACCCAUGUAAAGGAUCGUGAUAUUUUGUUCGUCUUAA [JR_SHM208A_Sub076] (puzzle: Sensor for hsa-mir-208a)”, the “apparent KD of MS2 coat protein” value worked out at 0.0572 µM under setting [2], 0.0325 µM under setting [3] and 0.083 µM under setting [4].
“UAAAGAUCGCGAGGAUAUCGCGAGGAUCACCCGUGAGAAGGCGCAGAGCCGAGGAUCACCCGGCUGAUCCUGAGGAGGAGGUCA (Eterna round: R96, puzzle: Same State NG 1)”: the “apparent KD of MS2 coat protein” value reads like this: (input ligand: FMN 200 uM) 0.204 µM; under setting [1], 0.213 µM; (input ligand: none) 0.302 µM.
With “UAAAGCAAGUCAGGAUAUGGGAAAGGAAGUGUACUAGAAGGGACUUGUAGGAACAUGAGGAUCACCCAUGUACCGCGGACUAAA [PowerStrip SSNG 1.7] (Eterna round: R96, puzzle: Same State NG 1)”, the “apparent KD of MS2 coat protein” value (input ligand: FMN 200 uM) turned out to be 0.0317 µM, the “apparent KD of MS2 coat protein” value under setting [1] was found to be 0.0426 µM and the “apparent KD of MS2 coat protein” value (input ligand: none) is 0.0478 µM.
On to “UAAAUAAUGAUAGGAUAUACAUGAGGAAUUCUCGUAGAAGGAUCAUGACAUGAGGAUCACCCAUGUAACGCUCGAAAGAGCGUA [Mat - Same State NG 1 - JL mod - D40] (Eterna round: R96, puzzle: Same State NG 1)”, for which the “apparent KD of MS2 coat protein” value runs as follows: (input ligand: FMN 200 uM) 0.556 µM; under setting [1], 0.205 µM; (input ligand: none) 0.585 µM.
As for “UAACAGUACAAUUUAGAUCUACAUGAGGAUCACCCAUGUACUGAGGAUAUCAGCUCGUGUAGAGCUGAGAAGGCAGAAGAACUA [SSNG3/11-A4] (Eterna round: R96, puzzle: Same State NG 3)”, the “apparent KD of MS2 coat protein” value was determined as 0.0381 µM (input ligand: FMN 200 uM), 0.0934 µM under setting [1] and 0.173 µM (input ligand: none).
On to “UAAUUAAGUCAAGGAUAUCACGUCGAAUAGACGUGAGAAGGUGAUUAAUACAUGAGGAUCACCCAUGUAAUACAUGAAUAAUUA [SSNG1/11-B1] (Eterna round: R96, puzzle: Same State NG 1)”, for which the “apparent KD of MS2 coat protein” value (input ligand: FMN 200 uM) amounted to 0.0383 µM, the “apparent KD of MS2 coat protein” value under setting [1] worked out at 0.0616 µM and the “apparent KD of MS2 coat protein” value (input ligand: none) came out at 0.0708 µM.
For the sequence “UACAAUCUAUCUGAGGAUAUCAUGCAUUACACAUGAGGAUCACCCAUGUGCAGGAAAACUGCAUAUGAGAAGGCAGAUAGAUUGU [salish99_ss2_r3_066] (Eterna round: R96, puzzle: Same State 2)”, the “apparent KD of MS2 coat protein” value was 0.0155 µM (input ligand: FMN 200 uM), 0.328 µM under setting [1] and 0.411 µM (input ligand: none).
Take “UACAAUCUAUCUGAGGAUAUCAUGCAUUACACAUGAGGAUCACCCAUGUGCAGGAAAACUGCAUAUGAGAAGGCAGAUAGAUUGU [salish99_ss2_r3_066] (puzzle: Same State 2)”: the “apparent KD of MS2 coat protein” value reads like this: under setting [2], 0.0201 µM; under setting [3], 0.457 µM; under setting [4], 0.472 µM.
“UAGAACAAGCUUUUUGCCCGUCUUAGAUAACAUGAGGAUCACCCAUGUAAGGUGAAAGUUAGAGAGUGGAGGAAGAA [JR_SHM208A_Sub054] (puzzle: Sensor for hsa-mir-208a)”: the “apparent KD of MS2 coat protein” value under setting [2] is 0.0864 µM, the “apparent KD of MS2 coat protein” value under setting [3] stood at 0.217 µM and the “apparent KD of MS2 coat protein” value under setting [4] amounted to 0.146 µM.
For the sequence “UAGGGACAUGAGGAUCACCCAUGUGCCUCAUAUGGAGAAACUCAGGAUAUGCUGAGGAUCACCCGGCAGAAGGGAGAUUUGACC (Eterna round: R96, puzzle: Same State NG 3)”, the “apparent KD of MS2 coat protein” value runs as follows: (input ligand: FMN 200 uM) 0.0242 µM; under setting [1], 0.0371 µM; (input ligand: none) 0.0532 µM.
Turning to “UAGUACAAGCUUUUUGCUUGUCUUAUUUAACAUGAGGAUCACCCAUGUAAGUUGAAAGUUAGAGAGUGGAGGUUGAA [JR_SHM208A_Sub050] (puzzle: Sensor for hsa-mir-208a)”, the “apparent KD of MS2 coat protein” value amounted to 0.02 µM under setting [2], 0.0204 µM under setting [3] and 0.0188 µM under setting [4].
Consider “UAGUGAUUGCAAGGAUAUGCUUAUGUUUAAUUUUAUUUAUUAUCUAACAUGAGGAUCACCCAUGUGCAGAAGGUGCUUGAUUUG [JR_SSNG2_Sub074] (Eterna round: R96, puzzle: Same State NG 2)”, for which, under setting [1], the “apparent KD of MS2 coat protein” value worked out at 0.0484 µM.
“UAGUGCAUUAGAGGAUAUUCUUACGGAAACGUUAAGACAUGAGGAUCACCCAUGUUGUCACAUGGGAAGAAGGCUGAUGUGCUA [Omei SS(NG)2 Bv4] (Eterna round: R96, puzzle: Same State NG 2)”: the “apparent KD of MS2 coat protein” value (input ligand: FMN 200 uM) was 0.0636 µM, the “apparent KD of MS2 coat protein” value under setting [1] turned out to be 0.39 µM and the “apparent KD of MS2 coat protein” value (input ligand: none) came to 0.835 µM.

Values taken from the supplement of paper PMC9170038.
